Here are results for five molecules from patent publication US20220411514A1, “ANTI-GAL3 ANTIBODIES AND METHODS OF USE FOR INSULIN RESISTANCE” (TrueBinding, Inc., priority 2021, published 2022).

The target in assay [1] is T1, Human Gal3 peptides (Homo sapiens, UniProt P17931).
T1 construct: purchased LifeTein custom order
Description: Gal3 peptide binding ELISA (Example 8). The following applies: antibody 5 μg/mL. The essentials:
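Reformatted hIgG4 (S228P) anti-Gal3 antibodies were tested at 5 μg/mL for 1 h at room temperature against immobilised human Gal3 peptides (≥100 μg/mL coating) or protein (1 μg/mL coating) on BSA-blocked plates. Bound antibody read by peroxidase goat anti-human IgG with TMB at 450 nm.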

In assay [2] the target is T2, hGal3 peptide (Homo sapiens, UniProt P17931).
T2 construct: a library of 24 amino acid peptides representing portions of Gal3
Description: Gal3 peptide library binding ELISA (Example 2). The method, then:
To identify the epitopes to which Gal3 antibodies with and without Gal3-INSR blocking activity bound, a library of 24 amino acid peptides representing portions of Gal3, depicted in FIG. 18, was produced and the ability of each peptide to bind Gal3 antibodies was evaluated by ELISA. At least 2 μg/ml of hGal3 peptide in 50 μl of PBS or 0.1 μg/ml of full-length human Gal3 protein (GenScript) and human Galectin-3 protein (Acro Biosystems, GA3-H5129) were diluted in PBS (Corning, 21-030-CM) to concentrations of at least 2 μg/ml or 0.1 μg/ml, respectively, and added to the wells of a 96-well ELISA plate (Thermo Fisher, 44-2404-21). After incubating the plate at 4° C. overnight, the plate was washed three times with PBST (PBS with 0.05% Tween 20 [VWR, 0777]). The plate was then blocked for an hour with 2% BSA (EMD Millipore, 126609) in PBST at room temperature with gentle rocking. Thereafter, the 2% BSA in PBST was discarded and human Galectin-3 hybridoma supernatants or antibodies were diluted in 2% BSA in PBST to concentrations of at least 0.1 μg/ml and added to the wells. The plate was incubated for an hour at room temperature with gentle rocking and then washed three times with PBST. Afterwards, Goat Anti-Mouse IgG-HRP (Jackson ImmunoResearch, 115-036-1461) or Goat Anti-Rat IgG HRP (Abcam, ab205720) diluted in 2% BSA in PBST (1:4000) were added to the wells. The plate was incubated for 30 minutes to 1 hour at room temperature with gentle rocking and then washed three times with PBST. TMB substrate (Thermo Scientific, 34029) was then added to each well. The reaction was stopped with 1M HCl (JT Baker, 5620-02) and read using a plate reader (Molecular Devices) at absorbance of 450 nm.
(In general: In an ELISA, binding on a coated surface is turned into a signal by an enzyme label.)

Assay [3] concerns NOD/ShiLtJ mice.
Description: To assess the therapeutic potential of anti-GAL3 antibody in Type I diabetes, a mouse model of diabetes type I was used. Briefly, seven-weeks-old female NOD/ShiLtJ mice (Jackson lab (001976)) and control group animals NOR/LtJ (Jackson Lab (002050)) were housed in standard disposable cages with filter tops at room temperature with a 6:00-18:00 day-night cycle. Mice were allowed to rest for a week before initiating glucose monitoring. The antibody treatment was initiated when glucose levels reach 250-400 (mg/dL) for two consecutive days. To establish glucose levels, the blood samples were collected from tail vein of the experimental animals following housing in clean cages with water and no food for 4-6 hours. The collected samples were analyzed by HemoCue Glucose 201 Analyzer and cuvettes (Mercedes Scientific 110706). The animals were dosed twice a week (10 mg/kg) with anti-GAL3 antibodies (mTB001) or PBS control. […] At the end stage, the plasma samples were collected from symptomatic animals. C-peptide levels were determined by Alpco Mouse C-peptide ELISA kit (Alpco, 80-CPTMS-E01).

B1: 15F10.2D6: anti-Gal3 antibody (antibody)
heavy: EVQLVESGGGLVKPGGSLKLSCAASGFAFSSYAMSWVRQTPEKRLEWVATISDGGVYTYYTDHVKGRFTISRDNAEDNLYLQMSHLKSEDTAMYYCVRDGGYWGQGTTLTVSSAKTTPPSVYPLAPVCGDTTGSSVTLGCLVKGYFPEPVTLTWNSGSLSSGVHTFPAVLQSDLYTLSSSVTVTSSTWPSQSITCNVAHPASSTKVDKKIEPRGPTIKPCPPCKCPAPNAAGGPSVFIFPPKIKDVLMISLSPIVTCVVVDVSEDDPDVQISWFVNNVEVHTAQTQTHREDYNSTLRVVSALPIQHQDWMSGKEFKCKVNNKDLGAPIERTISKPKGSVRAPQVYVLPPPEEEMTKKQVTLTCMVTDFMPEDIYVEWTNNGKTELNYKNTEPVLDSDGSYFMYSKLRVEKKNWVERNSYSCSVVHEGLHNHHTTKSFSRTPGK
light: DVLMTQTPLSLPVSLGDQASISCRSSQSIVHNNGNTYLEWYLQKPGQSPKLLIYKVSNRFSGVPDRFSGSGSGTDFTLKISRVEAEDLGVYYCFQGSHVPLTFGGGTKLELKRADVAPTVSIFPPSSEQLTSGGASVVCFLNNFYPKDINVKWKIDGSERQNGVLNSWTDQDSKDSTYSMSSTLTLTKDEYERHNSYTCEATHKTSTSPIVKSFNRNEC
modifications: 15F10.2D6 heavy chain peptide sequence; 15F10.2D6 light chain peptide sequence
notes: anti-Gal3 antibody
B1: in assay [1], the “binding to Gal3 peptide 2 (SEQ ID NO: 4)” value is listed as “bound”, the “binding to Gal3 peptide 3 (SEQ ID NO: 5)” value is “bound” and the “binding to Gal3 peptide 4 (SEQ ID NO: 6)” value was “bound”. Besides, the “binding to Gal3 peptide 7 (amino acids 61-80, SEQ ID NO: 9)” value in assay [2] is “bound”.

B2: 20D11.2C6: anti-Gal3 antibody (antibody)
heavy: EVQLQQSGPELVKPGASVKISCKASGYTFTDFYINWVKQSHGKSLEWIGDINPKNGGINYNPKFKIKATLTVDKSSSTSYMDLRGLTSEDSAVYYCTSGYGFPYWGQGTLVTVSAAKTTPPSVYPLAPVCGDTTGSSVTLGCLVKGYFPEPVTLTWNSGSLSSGVHTFPAVLQSDLYTLSSSVTVTSSTWPSQSITCNVAHPASSTKVDKKIEPRGPTIKPCPPCKCPAPNAAGGPSVFIFPPKIKDVLMISLSPIVTCVVVDVSEDDPDVQISWFVNNVEVHTAQTQTHREDYNSTLRVVSALPIQHQDWMSGKEFKCKVNNKDLGAPIERTISKPKGSVRAPQVYVLPPPEEEMTKKQVTLTCMVTDFMPEDIYVEWTNNGKTELNYKNTEPVLDSDGSYFMYSKLRVEKKNWVERNSYSCSVVHEGLHNHHTTKSFSRTPGK
light: DIQMNQSPSSLSASLGDTITITCRASQNIYIWLSWYQQKPGNIPKLLIYKASNLHTGVPSRFSGSGSGTDFTLTISTLQPEDIATYFCLQGQSYPLTFGAGTKLEMKRADVAPTVSIFPPSSEQLTSGGASVVCFLNNFYPKDINVKWKIDGSERQNGVLNSWTDQDSKDSTYSMSSTLTLTKDEYERHNSYTCEATHKTSTSPIVKSFNRNEC
modifications: 20D11.2C6 heavy chain peptide sequence; 20D11.2C6 light chain peptide sequence
notes: anti-Gal3 antibody
B2: in assay [1], the “binding to Gal3 peptide 1 (SEQ ID NO: 3)” value is “bound”, the “binding to Gal3 peptide 7 (SEQ ID NO: 9)” value is “bound” and the “binding to Gal3 peptide 8 (SEQ ID NO: 10)” value was “bound”. Besides, in assay [2], the “binding to Gal3 peptide 1 (amino acids 1-20, SEQ ID NO: 3)” value was “bound” and the “binding to Gal3 peptide 7 (amino acids 61-80, SEQ ID NO: 9)” value is on record as “bound”.

B3: 19B5.2E6: anti-Gal3 antibody (antibody)
heavy: QIQLVQSGPELKKPGETVKISCKASGYTFTTYAMSWVKQAPGKGLKWMGWINTYSGVPTYADDLKGRFAFSLETSASTAYLQINNLKNEDTATYFCARGPYAMDYWGQGTSVTVSSAKTTPPSVYPLAPVCGDTTGSSVTLGCLVKGYFPEPVTLTWNSGSLSSGVHTFPAVLQSDLYTLSSSVTVTSSTWPSQSITCNVAHPASSTKVDKKIEPRGPTIKPCPPCKCPAPNAAGGPSVFIFPPKIKDVLMISLSPIVTCVVVDVSEDDPDVQISWFVNNVEVHTAQTQTHREDYNSTLRVVSALPIQHQDWMSGKEFKCKVNNKDLGAPIERTISKPKGSVRAPQVYVLPPPEEEMTKKQVTLTCMVTDFMPEDIYVEWTNNGKTELNYKNTEPVLDSDGSYFMYSKLRVEKKNWVERNSYSCSVVHEGLHNHHTTKSFSRTPGK
light: DIQMTQTTSSLSASLGDRVTISCSASQGINNYLNWYQQKPDGTVKLLIYYASSLHSGVPSRFSGSGSGTDYSLTISNLEPEDIATYYCQQYSQVPYTFGSGTKLEIKRADVAPTVSIFPPSSEQLTSGGASVVCFLNNFYPKDINVKWKIDGSERQNGVLNSWTDQDSKDSTYSMSSTLTLTKDEYERHNSYTCEATHKTSTSPIVKSFNRNEC
modifications: 19B5.2E6 heavy chain peptide sequence; 19B5.2E6/23H9.2E4 light chain peptide sequence
notes: anti-Gal3 antibody
Turning to B3, in assay [1], the “binding to Gal3 peptide 1 (SEQ ID NO: 3)” value is “bound” and the “binding to Gal3 peptide 7 (SEQ ID NO: 9)” value is given as “bound”. Besides, in assay [2], the “binding to Gal3 peptide 1 (amino acids 1-20, SEQ ID NO: 3)” value was “bound” and the “binding to Gal3 peptide 7 (amino acids 61-80, SEQ ID NO: 9)” value is listed as “bound”.

B4: 23H9.2E4: anti-Gal3 antibody (antibody)
heavy: B3 heavy
light: B3 light
modifications: 23H9.2E4 heavy chain peptide sequence; 19B5.2E6/23H9.2E4 light chain peptide sequence
notes: anti-Gal3 antibody
In the case of B4, in assay [1], the “binding to Gal3 peptide 1 (SEQ ID NO: 3)” value is listed as “bound”, the “binding to Gal3 peptide 6 (SEQ ID NO: 8)” value is on record as “bound”, the “binding to Gal3 peptide 7 (SEQ ID NO: 9)” value is “bound” and the “binding to Gal3 peptide 8 (SEQ ID NO: 10)” value was “bound”. Moreover, in assay [2], the “binding to Gal3 peptide 1 (amino acids 1-20, SEQ ID NO: 3)” value is given as “bound” and the “binding to Gal3 peptide 7 (amino acids 61-80, SEQ ID NO: 9)” value was “bound”.

B5: mTB001: anti-Gal3 antibody mTB001 (antibody)
heavy: QIQLVQSGPELKKPGETVKISCKASGYTFTNYGMNWVKQAPGKGLKWMGWINTNTGEPTYVEEFKGRFAFSLETSASTAYLQINNLKNEDTATYFCAPYDNFFAYWGQGTLVTVSAAKTTPPSVYPLAPVCGDTTGSSVTLGCLVKGYFPEPVTLTWNSGSLSSGVHTFPAVLQSDLYTLSSSVTVTSSTWPSQSITCNVAHPASSTKVDKKIEPRGPTIKPCPPCKCPAPNAAGGPSVFIFPPKIKDVLMISLSPIVTCVVVDVSEDDPDVQISWFVNNVEVHTAQTQTHREDYNSTLRVVSALPIQHQDWMSGKEFKCKVNNKDLGAPIERTISKPKGSVRAPQVYVLPPPEEEMTKKQVTLTCMVTDFMPEDIYVEWTNNGKTELNYKNTEPVLDSDGSYFMYSKLRVEKKNWVERNSYSCSVVHEGLHNHHTTKSFSRTPGK
light: DIVITQDELSNPVTSGESVSISCRSSKSLLYKDGKTYLNWFLQRPGQSPQLLIYLMSTHASGVSDRFSGSGSGTDFTLEISRVKAEDVGVYYCQQLVDYPLTFGAGTKLELKRADVAPTVSIFPPSSEQLTSGGASVVCFLNNFYPKDINVKWKIDGSERQNGVLNSWTDQDSKDSTYSMSSTLTLTKDEYERHNSYTCEATHKTSTSPIVKSFNRNEC
modifications: mTB001 heavy chain peptide sequence; mTB001 light chain peptide sequence
With B5, in assay [3] (10 mg/kg twice a week), the blood glucose levels entry is recorded as “stabilizing the levels of blood glucose” and the survival entry was “prolonged survival”. The “circulating C-peptide levels” value in assay [3] (end stage plasma) is recorded as “restoring C-peptide levels”.
